Source: the Immune Epitope Database (IEDB)

Tests used:
[1] = target: HLA-A*02:01; experiment: IEDB peptide-MHC binding, cellular MHC/competitive/fluorescence; ≥ and ≤ were set here for values at or beyond the usual limits of such assays
[2] = target: HLA-A*02:02; experiment: as above
[3] = target: HLA-A*02:03; experiment: as above
[4] = target: HLA-A*02:06; experiment: as above
[5] = target: HLA-A*03:01; experiment: as above; settings: source organism: Hepatitis B virus
[6] = target: HLA-A*11:01; experiment: as above; settings: source organism: Hepatitis B virus
[7] = target: HLA-A*31:01; experiment: as above; settings: source organism: Hepatitis B virus
[8] = target: HLA-A*68:01; experiment: as above; settings: source organism: Hepatitis B virus
[9] = target: HLA-A*68:02; experiment: as above
[10] = target: HLA-A*02:01; experiment: IEDB peptide-MHC binding, purified MHC/competitive/radioactivity; ≥ and ≤ were set here for values at or beyond the usual limits of such assays; settings: source organism: Hepatitis B virus
[11] = target: HLA-A*02:06; experiment: as above; settings: source organism: Hepatitis B virus
[12] = source organism: Hepatitis B virus
[13] = source organism: Influenza A virus
[14] = source organism: Vaccinia virus WR

RILTIPQSL was tested. Which IC50 [1, 12] did it give?
The IC50 was 39.1 µM.

And the IC50 [2, 12]?
The IC50 was 6.45 µM.

What about the IC50 [3, 12] of the same sequence?
The IC50 was 9.77 µM.

And the IC50 [4, 12]?
Its IC50 is 5.95 µM.

What about the IC50 [5] of the same sequence?
Its IC50 is at least 70 µM.

What about the IC50 [6] of the same sequence?
Its IC50 is at least 70 µM.

And the IC50 [7]?
The IC50 was 36.9 µM.

What about the IC50 [8] of the same sequence?
The IC50 was at least 70 µM.

And the IC50 [9, 12]?
The IC50 was at least 70 µM.

Which IC50 [7] does the source give for FLLAQFTSA here?
The IC50 was 25.7 µM.

What about the IC50 [8] of the same sequence?
Its IC50 is at least 70 µM.

And the IC50 [9, 12]?
The IC50 was 9.89 µM.

What about the IC50 [10] of the same sequence?
Its IC50 is 0.098 µM.

And the IC50 [11]?
Its IC50 is 0.0087 µM.

How did the IC50 [1, 13] turn out when AAFEDLRL was run?
Its IC50 is at least 70 µM.

And the IC50 [2, 13]?
Its IC50 is 17.5 µM.

What about the IC50 [3, 13] of the same sequence?
Its IC50 is 48.9 µM.

And the IC50 [4, 13]?
The IC50 was 46.9 µM.

And the IC50 [9, 13]?
Its IC50 is 59.8 µM.

DVNEEYTEAA was tested. Which IC50 [1, 14] did it give?
The IC50 was 42.4 µM.

What about the IC50 [2, 14] of the same sequence?
The IC50 was 46.3 µM.

What about the IC50 [3, 14] of the same sequence?
Its IC50 is 28.8 µM.

And the IC50 [4, 14]?
Its IC50 is 59.7 µM.

And the IC50 [9, 14]?
The IC50 was 16 µM.

What does the source list for PANINDKQIM?
IC50 [1, 14]: 32.3 µM; IC50 [2, 14]: 49.5 µM; IC50 [3, 14]: 43.1 µM; IC50 [4, 14]: 10.9 µM; IC50 [9, 14]: ≥ 70 µM

With PAHKSQLV as the sequence, how does the IC50 [1, 13] read?
Its IC50 is at least 70 µM.

What about the IC50 [2, 13] of the same sequence?
The IC50 was at least 70 µM.

What about the IC50 [3, 13] of the same sequence?
The IC50 was at least 70 µM.

What about the IC50 [4, 13] of the same sequence?
The IC50 was at least 70 µM.

What about the IC50 [9, 13] of the same sequence?
Its IC50 is at least 70 µM.

With SMYPSCCCT as the sequence, how does the IC50 [1, 12] read?
Its IC50 is 6.43 µM.

And the IC50 [2, 12]?
The IC50 was 10.3 µM.

And the IC50 [3, 12]?
Its IC50 is 5.52 µM.

What about the IC50 [4, 12] of the same sequence?
The IC50 was 9.31 µM.

And the IC50 [5]?
Its IC50 is at least 70 µM.

And the IC50 [6]?
Its IC50 is at least 70 µM.

And the IC50 [7]?
Its IC50 is 68.4 µM.

What about the IC50 [8] of the same sequence?
The IC50 was at least 70 µM.

What about the IC50 [9, 12] of the same sequence?
Its IC50 is at least 70 µM.

How did the IC50 [1, 14] turn out when TTENAAYQVL was run?
The IC50 was 8.11 µM.

What about the IC50 [2, 14] of the same sequence?
The IC50 was 29.7 µM.

And the IC50 [3, 14]?
Its IC50 is at least 70 µM.

And the IC50 [4, 14]?
Its IC50 is at least 70 µM.

What about the IC50 [9, 14] of the same sequence?
The IC50 was 18.2 µM.

ALEPRKEIDV was tested. Which IC50 [1, 14] did it give?
Its IC50 is 27.2 µM.

And the IC50 [2, 14]?
The IC50 was 8.37 µM.

What about the IC50 [3, 14] of the same sequence?
The IC50 was 11.2 µM.

What about the IC50 [4, 14] of the same sequence?
Its IC50 is 63.8 µM.

What about the IC50 [9, 14] of the same sequence?
Its IC50 is at least 70 µM.

Which results are given for CTEETKRNIA?
IC50 [1, 14]: ≥ 70 µM; IC50 [2, 14]: ≥ 70 µM; IC50 [3, 14]: 50.1 µM; IC50 [4, 14]: ≥ 70 µM; IC50 [9, 14]: 15.2 µM

For ELVMDKNHAI, which IC50 [1, 14] is on record?
Its IC50 is at least 70 µM.

What about the IC50 [2, 14] of the same sequence?
Its IC50 is 14.2 µM.

What about the IC50 [3, 14] of the same sequence?
The IC50 was at least 70 µM.

What about the IC50 [4, 14] of the same sequence?
Its IC50 is at least 70 µM.

And the IC50 [9, 14]?
The IC50 was 19.5 µM.

How did the IC50 [1, 14] turn out when VMDKNHAIFT was run?
Its IC50 is 8.7 µM.

And the IC50 [2, 14]?
The IC50 was 18.7 µM.

What about the IC50 [3, 14] of the same sequence?
Its IC50 is 11.5 µM.

And the IC50 [4, 14]?
The IC50 was at least 70 µM.

And the IC50 [9, 14]?
The IC50 was 13 µM.

How did the IC50 [1, 14] turn out when ELTSNCTRT was run?
The IC50 was 48.7 µM.

What about the IC50 [2, 14] of the same sequence?
The IC50 was at least 70 µM.

And the IC50 [3, 14]?
Its IC50 is at least 70 µM.

And the IC50 [4, 14]?
The IC50 was 46.2 µM.

What about the IC50 [9, 14] of the same sequence?
The IC50 was at least 70 µM.

Which results are given for AARLKRSAT?
IC50 [1, 14]: ≥ 70 µM; IC50 [2, 14]: 12.5 µM; IC50 [3, 14]: 10.5 µM; IC50 [4, 14]: 63.8 µM; IC50 [9, 14]: ≥ 70 µM
